Measured values from the Human Domainome abundance scans (Beltran et al. 2025).
± gives the uncertainty stated by the source.

B1: POU domain, class 3, transcription factor 2, residues 262 to 338; numbered along this chain, P20265 (parent)
chain: EDTPTSDDLEQFAKQFKQRRIKLGFTQADVGLALGTLYGNVFSQTTICRFEALQLSFKNMCKLKPLLNKWLEEADSS
B2: Lysine-specific demethylase 2B, residues 656 to 722; numbered along this chain, Q8NHM5 (parent)
chain: LPHTAVCLVCGEAGKEDTVEEEEGKFNLMLMECSICNEIIHPGCLKIKESEGVVNDELPNCWECPKC

Variants of: B1
Assay: abundance fitness (aPCA) (normalised: wild type 0, dead -1); higher = more abundant; growth selection in yeast, the domain comes from the species named
Details: Homo sapiens

Variant	abundance fitness
W70R	-0.649 ± 0.039
W70G	-0.754 ± 0.041
W70E	-0.742 ± 0.077
W70A	-0.519 ± 0.048
W70Q	-0.728 ± 0.088
W70H	-0.943 ± 0.21
W70M	-0.669 ± 0.084
W70K	-0.814 ± 0.12
W70P	-0.853 ± 0.11
W70F	-0.111 ± 0.068
W70C	-0.698 ± 0.11
W70Y	-0.381 ± 0.099
W70D	-0.431 ± 0.15
W70N	-0.358 ± 0.18
W70V	-0.411 ± 0.042
W70S	-0.742 ± 0.065
W70I	-0.64 ± 0.15
W70L	-0.502 ± 0.043
W70T	-1.06 ± 0.18
N68W	0.004 ± 0.1
N68T	0.046 ± 0.085
N68R	-0.004 ± 0.074
N68V	0.085 ± 0.077
K69Q	-0.003 ± 0.087
K69C	-0.449 ± 0.16
K69F	-0.234 ± 0.14

Variant	abundance fitness
K69D	-0.264 ± 0.14
K69W	-0.288 ± 0.16
K69Y	0.138 ± 0.16
K69R	0.019 ± 0.056
K69S	-0.146 ± 0.1
K69V	-0.273 ± 0.084
K69E	-0.231 ± 0.1
K69A	-0.094 ± 0.07
K69L	-0.144 ± 0.092
K69M	0.112 ± 0.14
K69N	-0.298 ± 0.25
K69T	-0.02 ± 0.08
S76F	-0.161 ± 0.056
S76E	0.002 ± 0.038
S76H	0.023 ± 0.064
S76N	0.013 ± 0.05
S76A	0.05 ± 0.031
S76T	-0.019 ± 0.043
S76C	-0.075 ± 0.043
S76Q	0.055 ± 0.047
S76P	-0.012 ± 0.044
S76V	0.01 ± 0.032
S76K	0.021 ± 0.046
S76D	0.042 ± 0.048
S76G	0.004 ± 0.026
S76I	-0.153 ± 0.063

Variant	abundance fitness
S76L	-0.099 ± 0.033
S76R	0.028 ± 0.028
S76M	-0.021 ± 0.045
S76W	-0.163 ± 0.034
S76Y	-0.14 ± 0.068
S77C	-0.184 ± 0.067
S77V	0.008 ± 0.042
S77W	-0.105 ± 0.065
S77M	-0.17 ± 0.078
S77D	-0.003 ± 0.064
S77F	-0.155 ± 0.13
S77N	-0.169 ± 0.11
S77A	0.115 ± 0.038
S77E	-0.016 ± 0.051
S77K	-0.097 ± 0.074
S77H	-0.011 ± 0.079
S77T	0.073 ± 0.049
S77R	0.054 ± 0.045
S77P	0.003 ± 0.041
S77G	0.061 ± 0.036
S77L	-0.028 ± 0.05
S77I	-0.031 ± 0.077
D75Y	-0.046 ± 0.056
D75P	-0.106 ± 0.049
D75V	-0.135 ± 0.031
D75S	0.032 ± 0.033

Variant	abundance fitness
D75R	-0.058 ± 0.028
D75K	-0.058 ± 0.047
D75I	-0.089 ± 0.092
D75M	-0.022 ± 0.037
D75T	-0.014 ± 0.042
D75F	-0.3 ± 0.1
D75G	-0.032 ± 0.027
D75N	-0.032 ± 0.059
D75H	-0.081 ± 0.06
D75E	0.071 ± 0.034
D75A	0.009 ± 0.031
D75W	-0.085 ± 0.034
D75L	-0.133 ± 0.034
D75C	-0.161 ± 0.049
E73H	-0.218 ± 0.27
E73D	0.06 ± 0.1
E73L	-0.013 ± 0.06
E73K	0.118 ± 0.089
E73A	-0.145 ± 0.081
E73Q	0.159 ± 0.098
E73I	-0.009 ± 0.12
E73V	-0.067 ± 0.073
E73Y	0.129 ± 0.14
E73T	0.089 ± 0.073
E73C	0.024 ± 0.12
E73F	-0.057 ± 0.14

Variant	abundance fitness
E73S	-0.071 ± 0.068
E73P	-0.416 ± 0.17
E73G	-0.036 ± 0.05
E73N	-0.192 ± 0.34
E73W	-0.076 ± 0.073
E73R	-0.147 ± 0.066
A74R	-0.036 ± 0.029
A74S	-0.168 ± 0.039
A74T	-0.026 ± 0.05
A74Y	-0.151 ± 0.069
A74E	-0.065 ± 0.037
A74G	-0.331 ± 0.03
A74M	-0.088 ± 0.049
A74H	-0.032 ± 0.067
A74L	-0.09 ± 0.037
A74W	-0.172 ± 0.036
A74Q	-0.046 ± 0.055
A74P	-0.274 ± 0.068
A74V	0.041 ± 0.034
A74K	-0.037 ± 0.051
A74C	0.034 ± 0.046
L71F	-0.699 ± 0.22
L71I	-0.422 ± 0.37
L71S	-0.207 ± 0.075
L71A	-0.504 ± 0.16
L71V	-0.089 ± 0.12

Variant	abundance fitness
L71M	0.067 ± 0.12
L71G	-0.445 ± 0.088
L71C	-0.847 ± 0.37
L71E	-0.598 ± 0.49
L71W	-0.465 ± 0.12
L71Y	-0.168 ± 0.17
L71R	-0.427 ± 0.077
L71K	-0.559 ± 0.2
E72P	-0.655 ± 0.11
E72M	-0.117 ± 0.054
E72N	-0.094 ± 0.063
E72C	-0.042 ± 0.056
E72K	-0.12 ± 0.087
E72G	-0.178 ± 0.033
E72Y	-0.217 ± 0.085
E72R	-0.068 ± 0.03
E72T	-0.073 ± 0.042
E72W	-0.177 ± 0.043
E72Q	0.003 ± 0.051
E72L	0.004 ± 0.035
E72A	-0.017 ± 0.037
E72V	0.017 ± 0.035
E72F	-0.191 ± 0.066
E72S	-0.13 ± 0.038
E72I	-0.102 ± 0.058

Variants of: B2
Assay: as above
Details: Homo sapiens

Variant	abundance fitness
E21G	0.12 ± 0.1
P65C	-0.384 ± 0.11
L8I	0.099 ± 0.24
K48M	0.157 ± 0.11
A13D	-0.138 ± 0.15
N27A	0.091 ± 0.078
I39P	-0.055 ± 0.13
E49Q	-0.079 ± 0.073
E51K	-0.027 ± 0.19
I35M	0.023 ± 0.13
T4A	-0.889 ± 0.26
G11L	0.046 ± 0.074
